Data from PMC5910394, “Mechanically interlocked functionalization of monoclonal antibodies” (Nature Communications, 2018).
Each block holds one binder with its values, some of them ahead of it. Positions of bridges follow the written chain, without caps; N, C: chain ends. Non-standard residues stand in square brackets, D forms with d. Groups on a side chain read outwards from the residue. No end group written: not given here. *: point of attachment. Dip = N[C@H](C(=O)O)C(c1ccccc1)c1ccccc1; azide = [N-]=[N+]=N*

Legend:
Ile83Glu anti-HER2 memAb [1] = experiment: SPR; memAb variant amine-coupled to a CM5 chip, peptide flowed over, HBS-EP+; temperature not told for this result (25 °C or 37 °C)
[2] = target: anti-HER2 memAb (trastuzumab-based, meditope-enabled anti-HER2 antibody); experiment: SPR; memAb variant amine-coupled to a CM5 chip, peptide flowed over at 30 uL/min, HBS-EP+, 37 °C, Biacore T100, 1:1 binding model
[3] = target: anti-HER2 memAb (trastuzumab-based, meditope-enabled anti-HER2 antibody); experiment: SPR; memAb variant amine-coupled to a CM5 chip, peptide flowed over at 30 uL/min, HBS-EP+, 25 °C, Biacore T100, 1:1 binding model
[4] = target: memAb anti-HER2 (meditope-enabled, trastuzumab-based anti-HER2 antibody); experiment: SPR; memAb anti-HER2 amine-coupled on a CM5 chip, meditope flowed over at 30 uL/min, HBS-EP+, 25 °C, 1:1 model, global fit, n=1 (authors estimate the error at 10-50%)
[5] = target: Ile83Glu memAb anti-HER2 IgG; experiment: SPR; Ile83Glu memAb anti-HER2 amine-coupled on a CM5 chip, meditope flowed over at 30 uL/min, HBS-EP+, 25 °C, 1:1 model, global fit, n=1 (authors estimate the error at 10-50%)
[6] = target: memAb anti-HER2 (meditope-enabled, trastuzumab-based anti-HER2 antibody); experiment: SPR; memAb anti-HER2 amine-coupled on a CM5 chip, meditope flowed over at 30 uL/min, HBS-EP+, 37 °C, 1:1 model, global fit, n=1 (authors estimate the error at 10-50%)
[7] = target: Ile83Glu memAb anti-HER2 IgG; experiment: SPR; Ile83Glu memAb anti-HER2 amine-coupled on a CM5 chip, meditope flowed over at 30 uL/min, HBS-EP+, 37 °C, 1:1 model, global fit, n=4, standard deviation
[8] = target: Ile83Glu memAb anti-HER2 IgG; experiment: SPR; Ile83Glu memAb anti-HER2 IgG immobilized on the sensor chip, 37 °C, n=1, analyte as a two-fold dilution series from 500 pM to 39 pM, 1:1 interaction model
Ile83Glu anti-HER2 memAb [9] = experiment: SPR; memAb variant amine-coupled to a CM5 chip, peptide flowed over at 30 uL/min, HBS-EP+, 37 °C, Biacore T100, 1:1 binding model
Ile83Glu anti-HER2 memAb [10] = experiment: SPR; memAb variant amine-coupled to a CM5 chip, peptide flowed over at 30 uL/min, HBS-EP+, 25 °C, Biacore T100, 1:1 binding model

Ile83Glu memAb anti-HER2 IgG, sequence (heavy, as listed by the source, chain 1 of 2): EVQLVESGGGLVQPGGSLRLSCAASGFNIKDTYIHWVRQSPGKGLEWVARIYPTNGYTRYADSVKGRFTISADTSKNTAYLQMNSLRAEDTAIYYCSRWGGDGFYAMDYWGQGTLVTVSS
Ile83Glu memAb anti-HER2 IgG, sequence (light, as listed by the source, chain 2 of 2): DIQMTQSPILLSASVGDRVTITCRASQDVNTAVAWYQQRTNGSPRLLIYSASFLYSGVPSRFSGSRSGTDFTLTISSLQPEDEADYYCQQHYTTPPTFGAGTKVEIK
Ile83Glu anti-HER2 memAb, sequence (heavy, as listed by the source, chain 1 of 2): as the sequence (heavy, as listed by the source, chain 1 of 2) above
memAb anti-HER2 (meditope-enabled, trastuzumab-based anti-HER2 antibody), sequence (heavy, as listed by the source, chain 1 of 2): as above
memAb anti-HER2 (meditope-enabled, trastuzumab-based anti-HER2 antibody), sequence (light, as listed by the source, chain 2 of 2): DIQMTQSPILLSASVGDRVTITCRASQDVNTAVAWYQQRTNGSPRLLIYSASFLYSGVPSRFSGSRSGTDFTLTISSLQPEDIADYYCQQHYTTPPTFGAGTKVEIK
anti-HER2 memAb (trastuzumab-based, meditope-enabled anti-HER2 antibody), sequence (heavy, as listed by the source, chain 1 of 2): as the sequence (heavy, as listed by the source, chain 1 of 2) above

B1: 5-diphenylalanine-8-Arg-(PEG)2-azidomeditope (peptide)
peptide: Ac-CQFD[Dip]STR([(PEG)2-azide])RLRCGGSK
modifications: disulfide 1-12 (inferred); also: arginine-(PEG)2-azide at position 8 by name (footnote: 9th place)
- koff [8]: 0.00014 s⁻¹
- kon [8]: 66000 M⁻¹ s⁻¹

Binder: Ac-CQFD[Dip]STRRLRCGGSK (disulfide 1-12 (inferred)) [5-diphenylalanine long meditope ((Ac)CQFDA(Ph)2…)]
- Kd (Ile83Glu anti-HER2 memAb [9]): 0.4 nM
- half-life (Ile83Glu anti-HER2 memAb [9]): 40 min
- Kd (Ile83Glu anti-HER2 memAb [10]): < 0.026 nM
- koff (Ile83Glu anti-HER2 memAb [10]): < 1e-05 s⁻¹

Binder: Ac-CQFDLSTRRLRCGGSK (disulfide 1-12 (inferred)) [long meditope (Ac)…]
- Kd [4]: 210 nM
- koff [4]: 0.006 s⁻¹
- kon [4]: 28000 M⁻¹ s⁻¹
- Kd [5]: 0.44 nM
- koff [5]: 0.00031 s⁻¹
- kon [5]: 710000 M⁻¹ s⁻¹
- Kd [6]: 350 nM
- koff [6]: 0.026 s⁻¹
- kon [6]: 75000 M⁻¹ s⁻¹
- Kd [7]: 4 nM
- koff [7]: 0.00063 s⁻¹
- kon [7]: 160000 M⁻¹ s⁻¹

Next, values leading:

- Kd (Ile83Glu anti-HER2 memAb [1]): 23 nM
- Kd [2]: 1000 nM
- half-life [2]: 0.267 min
- Kd [3]: 1200 nM
Binder: CQFDLSTRRLKC (disulfide 1-12 (inferred)) [original meditope (…)]

- koff [4]: 0.016 s⁻¹
- kon [4]: 13000 M⁻¹ s⁻¹
- koff [5]: 0.00059 s⁻¹
- kon [5]: 26000 M⁻¹ s⁻¹
- koff [6]: 0.044 s⁻¹
- kon [6]: 44000 M⁻¹ s⁻¹
- Kd [7]: 20 nM
- koff [7]: 0.0025 s⁻¹
- kon [7]: 260000 M⁻¹ s⁻¹
Binder: CQFDLSTRRLKC (disulfide 1-12) [original meditope …]
